The numbers were not newly measured in PMC10582360, “A nanoparticle platform for combined mucosal healing and immunomodulation in inflammatory bowel disease treatment” (Bioactive materials, 2023), which cites them from elsewhere.

For this data set, the system named is dipeptidyl peptidase IV (DPP-IV). The settings on record: ref [4]. The text has this: Teduglutide, a GLP-2 analog with prolonged half-life, is commercialized as a daily subcutaneous injection (Gattex®, Revestive®) for its use in short bowel syndrome (SBS) in patients who are dependent on parenteral support. A second long-acting GLP-2 analog, glepaglutide (Zealand Pharma), has just ...

On to Glucagon-like peptide 2 [GLP-2], for which the “cleavage by DPP-IV” value was “rapidly cleaved”.
